Measurements reported in the supplement of paper PMC10567573.
± gives the standard deviation.

Experiment: protein stability index of a GFP-peptide fusion (GPS, HEK-293T) (PSI 1-6); higher = more stable
[1] = treatment: DMSO, c terminus: a fixed tail appended
[2] = treatment: MLN4924 1 uM, 8 h, c terminus: a fixed tail appended
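Also: 24-mer peptide tiles fused after GFP, lentivirally expressed, FACS-sorted into six equal bins by GFP/DsRed ratio, decoded by Illumina sequencing, PSI is the read-weighted mean bin number.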

| Sequence | protein stability index [1] | protein stability index [2] | protein stability index (treatment: DMSO, c terminus: native) | protein stability index (treatment: MLN4924 1 uM, 8 h, c terminus: native) |
| --- | --- | --- | --- | --- |
| ILLQDHIRDLDVVVVSVAGAFRKG [ATL3] | 2.94 ± 0.34 | 2.57 ± 0.68 | – | – |
| KAVNDETCKASHITSSVFPSASLG [FBXO34] | 3.66 ± 0.2 | 3.61 ± 0.18 | – | – |
| QKELKKAQMAKAAAEERALFTDRM [WEE1] | 4.69 ± 0.19 | 4.67 ± 0.16 | – | – |
| DTEVITVEKSSPATSLFVELDEEE [BCL2L13] | 5.39 ± 0.065 | 5.54 ± 0.25 | – | – |
| ELNNCISMLVAGNDRVQTIITQLE [TRIM63] | 2.25 ± 0.39 | 2.38 ± 0.11 | – | – |
| TLKRGYFQKSLVLISKLPYIHFFH [DENND6A] | 3.11 ± 0.73 | 2.7 ± 0.3 | – | – |
| EYDVYSTFQSHEPEFDYLKSLEIE [PPP2R2C] | 4.33 ± 0.17 | 4.3 ± 0.078 | – | – |
| FDPKTKRILTLQKANSWFNCRKN [MMP1] | – | – | 2.84 ± 0.41 | 2.78 ± 0.25 |
| SSSSSFGSGFGGGYGGGLGAGFGG [KRT16] | 2.65 ± 0.46 | 2.89 ± 0.3 | – | – |
| LNVQKTVDYTGQAKAQVRKAVQYE [STX11] | 3.99 ± 0.11 | 4.09 ± 0.19 | – | – |
| QKTRLLEDSVSRLEKEIEVLERGD [PALM] | 4.96 ± 0.069 | 5.03 ± 0.27 | – | – |
| PQTLIMAYDYAKEVNSAEELEGLI [FEM1C] | 3.75 ± 0.32 | 3.56 ± 0.27 | – | – |
| AALPPVPSPPAAPSVADNLLASSD [SERTAD1] | 5.46 ± 0.14 | 5.35 ± 0.3 | – | – |
| EFNELLSKYQLSEAQLSLIRDIRR [NFE2L1] | 2.57 ± 0.22 | 2.82 ± 0.38 | – | – |
| VQTGLDQYQQVPVEIVKSDFHKPF [IQUB] | 3.5 ± 0.22 | 3.52 ± 0.33 | – | – |
| MLKIHRSDPQLIVQLRFCGRQPCG [TRADD] | 2.46 ± 0.73 | 1.92 ± 0.39 | – | – |
| CAGPGFTHNIAHGSLGFEPVYVSC [SPAG8] | 2.48 ± 0.75 | 2.49 ± 0.64 | – | – |
| SLFCLEDKELLCCSCQADPRHQGH [TRIM35] | 3.06 ± 0.16 | 3.35 ± 0.4 | – | – |
| PGLLEEDNQWMTQINRLQKLIDRL [NECAB1] | 2.51 ± 0.23 | 2.88 ± 0.2 | – | – |
| NGCEVKNRKSILSRHLNSQVKKTT [PHTF1] | 3.95 ± 0.24 | 4 ± 0.37 | – | – |
| DTWTLTEEHGLQQERPRPEPGRLG [PXN] | 4.93 ± 0.34 | 4.92 ± 0.19 | – | – |
| WDLSEAWMQANYDPLSDSDSMTSQ [ELOA2] | 4.34 ± 0.33 | 4.45 ± 0.21 | – | – |

| Sequence | protein stability index [1] | protein stability index [2] | protein stability index (treatment: DMSO, c terminus: native) | protein stability index (treatment: MLN4924 1 uM, 8 h, c terminus: native) |
| --- | --- | --- | --- | --- |
| FRKVKQMHLNFMDEKDRIITAFYN [DNAJC4] | 2.26 ± 0.2 | 2.41 ± 0.28 | – | – |
| RHIHHLGNQLQLNQHCLDTAFNFF [BRF1] | 2.29 ± 0.23 | 2.3 ± 0.16 | – | – |
| ELGSEVDITEGDRKPDYTAYVAMI [ATF4] | 3.46 ± 0.15 | 3.61 ± 0.3 | – | – |
| SQRQAKELKLEQQEAAERESKLLR [LRRC45] | 5.17 ± 0.28 | 5.22 ± 0.1 | – | – |
| CPVVRNGSVAVVEAECEKSSATTY [SLC6A17] | 4.64 ± 0.44 | 4.82 ± 0.17 | – | – |
| LGPSPQRDPQAVKERALSAPWLSL [ZNF263] | 2.72 ± 0.14 | 2.77 ± 0.29 | – | – |
| PGPERLFDSHRLPGDCFLLLVLLL [AUP1] | 2.46 ± 0.54 | 2.14 ± 0.59 | – | – |
| FLADEEFDVVVCDQVSACIPVFRL [ALG2] | 2.3 ± 0.43 | 2.34 ± 0.47 | – | – |
| MQFLIRSHECKPEGYEFCHNRKVL [PPEF2] | 2.28 ± 0.34 | 2.55 ± 0.18 | – | – |
| QFTSSSSIKGSSGLGGGSSRTSCR [KRT17] | 4.34 ± 0.12 | 4.33 ± 0.26 | – | – |
| GHGAEQAAAFPTEDSRTSKESMSE [EHMT1] | 5.69 ± 0.2 | 5.19 ± 0.62 | – | – |
| VLVLCVFNSILPGVLILFLTFFAF [SOAT1] | 3.37 ± 0.25 | 3.17 ± 0.22 | – | – |
| HHGGDYKHWREWGSHAQTSQIQSI [CRYBA1] | 3.1 ± 0.14 | 3.19 ± 0.26 | – | – |
| RDLINCCYVSRRLSQLSSHDPLWR [FBXO3] | 2.09 ± 0.28 | 2.31 ± 0.29 | – | – |
| TSPECASPQFEGPLSPPPINYNGI [NEUROD6] | 4.07 ± 0.15 | 3.91 ± 0.3 | – | – |
| EMCHKPDVELLQDLGDIVARSESV [TRIM43] | 4.66 ± 0.15 | 4.62 ± 0.24 | – | – |
| LLEDPLCADVILVLQERVRIFAHK [RHOBTB2] | 2.21 ± 0.21 | 2.5 ± 0.25 | – | – |
| GEKPYKCTHCSKSFRQRAGLIMHQ [ZNF449] | 3.59 ± 0.46 | 3.75 ± 0.27 | – | – |
| LHLAAQGRHAQTVETLLRHGAHIN [RIPK4] | 2.4 ± 0.31 | 2.98 ± 0.51 | – | – |
| PESQMCRKFSRECEDQKQIKKPES [NEUROD6] | 5.09 ± 0.38 | 5.31 ± 0.22 | – | – |
| CDPGLTAFEPEALGNLVEGMDFHR [CAMK2D] | 4.33 ± 0.43 | 4.21 ± 0.24 | – | – |
| SREYKLVMLGAGGVGKSAMTMQFI [RIT1] | 2.51 ± 0.46 | 2.27 ± 0.42 | – | – |
